# “And” between values parts separate entries of the source, which are not always exact repeats. Identical values can stand only once.
# B1: human Flower isoform 4 with C-terminal mTFP (hFwe4-mTFP) (natural protein, UniProt Q9UGQ2-1 1-172, looked up)
# chain: MSSSGGAPGASASSAPPAQEEGMTWWYRWLCRLSGVLGAVSCAISGLFNCITIHPLNIAAGVWMIMNAFILLLCEAPFCCQFIEFANTVAEKVDRLRSWQKAVFYCGMAVVPIVISLTLTTLLGNAIAFATGVLYGLSALGKKGDAISYARIQQQRQQADEEKLAETLEGEL
# notes: human Flower (CACFD1) isoform hFwe4, contains exon 3 and both the YRWL and YARI motifs; 93% identical to mFwe2; also called human isoform Fwe4; source: Fwe KO mouse CTLs, transfected with pMAX plasmid, in lysate
# B2: mouse Flower isoform 3 with C-terminal mTFP (mFwe3-mTFP) (natural protein, UniProt Q8BG21-2 1-128, looked up)
# chain: MSGSGAAGAAAGPAPPAQEEGMTWWYRWLCRLAGVLGAVSCAISGLFNCVTIHPLNIAAGVWMIMNAFILLLCEAPFCCQFVEFANTVAEKVDRLRSWQKAVFYCGHGEALRGAWPDVRLPNRNTISL
# notes: source: Fwe KO mouse CTLs, transfected with pMAX plasmid, in lysate
# B3: mouse Flower isoform 2, full-length form, with C-terminal mTFP (mFwe2-mTFP) (natural protein, UniProt Q8BG21-1 1-171, looked up)
# chain: MSGSGAAGAAAGPAPPAQEEGMTWWYRWLCRLAGVLGAVSCAISGLFNCVTIHPLNIAAGVWMIMNAFILLLCEAPFCCQFVEFANTVAEKVDRLRSWQKAVFYCGMAIVPIVMSLTLTTLLGNAIAFATGVLYGLSALGKKGDAISYARIQQQRQQADEEKLAETFEGEL
# notes: mouse Flower (Fwe); also called Mouse Flower 2; source: Fwe KO mouse CTLs, transfected with pMAX plasmid, in lysate
# B4: mouse Flower isoform 1 with C-terminal mTFP (mFwe1-mTFP) (natural protein, UniProt Q8BG21-3 1-106, looked up)
# chain: MSGSGAAGAAAGPAPPAQEEGMTWWYRWLCRLAGVLGAVSCAISGLFNCVTIHPLNIAAGVWMIMNAFILLLCEAPFCCQFVEFANTVAEKVDRLRSWQKAVFYCG
# notes: Whole isoform cDNA synthesised (BioCAT) and subcloned into pMAX-mTFP; also called Mouse Fwe1; source: Fwe KO mouse CTLs, transfected with pMAX plasmid, in lysate
# B5: Drosophila Flower isoform Ubi with C-terminal mTFP (dUbi-mTFP) (natural protein, UniProt Q95T12-1 1-194, looked up)
# chain: MSFAEKITGLLARPNQQDPIGPEQPWYLKYGSRLLGIVAAFFAILFGLWNVFSIITLSVSCLVAGILQMVAGFVVMLLEAPCCFVCFGQVNEIAEKVESKPLYFRAGLYIAMAIPPIILCFGLASLFGSGLIFGTGVVYGMMALGKKASAEDMRAAAQQTFGGNTPAQTNDRAGIVNNAQPFSFTGAVGTDSNV
# notes: Drosophila Flower (Fwe), ubiquitous splice isoform dUbi; the three Drosophila isoforms are identical in aa 1-146 and differ in the C-terminus; also called dFwe-Ubi-mTFP; Drosophila Ubi isoform; source: Fwe KO mouse CTLs, transfected with pMAX plasmid, in lysate
# Target: the molecule itself
# Test: native gel or EMSA; native PAGE (4-16% Bis-Tris, G-250 additive) of lysates of transfected Fwe KO mouse CTLs (modified RIPA: 50 mM Tris pH 7.5, 50 mM NaCl, 1% Triton-X-100, 1 mM EDTA), western blot with anti-DsRed recognising mTFP; oligomeric state read from band size
row,Protein,stoichiometry N
1,B1,2 and 4
2,B2,2 and 4 and 6
3,B3,4 and 2
4,B4,4 and 6 and 2
5,B5,2 and 4
